{"source": "paper PMC12884772", "about": "“Macrophagic Sclerostin Loop2‐ApoER2 Interaction Required by Sclerostin for Cardiovascular Protective Action” (Advanced Science, 2025)", "key": {"His-sclerostin loop2": {"molecular_target": "His-sclerostin loop2", "assay": "BLI; Octet RED96e; Figure 6B, 'ApoER2 to sclerostin' and 'to sclerostin loop2'; the methods tell of biotin-ApoER2 loaded on streptavidin biosensors, PBS with 0.02% Tween 20; partner loaded in this panel not given"}, "[1]": {"molecular_target": "full-length His-sclerostin (not stated (recombinant human and mouse sclerostin used in the paper)) (UniProt Q99P68)", "sequence (Q99P68 24-211)": "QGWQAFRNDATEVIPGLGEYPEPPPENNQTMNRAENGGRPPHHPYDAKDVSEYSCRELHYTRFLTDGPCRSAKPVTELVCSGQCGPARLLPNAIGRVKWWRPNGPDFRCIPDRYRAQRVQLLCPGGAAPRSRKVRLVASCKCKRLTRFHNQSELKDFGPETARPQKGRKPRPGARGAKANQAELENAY", "assay": "BLI; Octet RED96e; Figure 6B, 'ApoER2 to sclerostin' and 'to sclerostin loop2'; the methods tell of biotin-ApoER2 loaded on streptavidin biosensors, PBS with 0.02% Tween 20; partner loaded in this panel not given"}, "[2]": {"molecular_target": "ApoER2 protein (R&D, 3520-AR) (UniProt Q14114)", "sequence (Q14114 42-826)": "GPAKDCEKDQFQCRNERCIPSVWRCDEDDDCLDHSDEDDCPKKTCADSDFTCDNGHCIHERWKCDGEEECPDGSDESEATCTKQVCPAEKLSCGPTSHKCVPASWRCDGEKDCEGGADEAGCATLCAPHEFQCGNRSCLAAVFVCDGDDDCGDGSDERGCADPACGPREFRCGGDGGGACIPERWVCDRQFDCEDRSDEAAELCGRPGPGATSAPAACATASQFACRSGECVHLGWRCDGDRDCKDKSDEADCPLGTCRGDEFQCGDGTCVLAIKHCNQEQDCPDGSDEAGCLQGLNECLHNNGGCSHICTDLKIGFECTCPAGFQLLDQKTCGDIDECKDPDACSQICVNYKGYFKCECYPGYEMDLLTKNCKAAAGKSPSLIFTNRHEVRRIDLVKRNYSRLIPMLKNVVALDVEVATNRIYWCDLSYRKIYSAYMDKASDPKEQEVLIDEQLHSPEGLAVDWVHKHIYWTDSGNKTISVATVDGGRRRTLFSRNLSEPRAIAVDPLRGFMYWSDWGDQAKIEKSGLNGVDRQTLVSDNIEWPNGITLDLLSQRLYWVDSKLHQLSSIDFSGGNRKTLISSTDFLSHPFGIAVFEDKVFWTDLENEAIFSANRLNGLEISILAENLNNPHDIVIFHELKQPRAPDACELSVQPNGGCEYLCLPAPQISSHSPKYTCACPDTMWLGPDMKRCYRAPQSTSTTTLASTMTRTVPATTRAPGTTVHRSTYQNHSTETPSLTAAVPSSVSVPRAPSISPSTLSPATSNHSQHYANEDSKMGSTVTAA", "assay": "BLI; Octet RED96e; Figure S6B, 'sclerostin to ApoER2'; partner loaded in this panel not given"}}}
{"substance": "ApoER2 protein (R&D, 3520-AR) (from UniProt Q14114 42-826) (receptor)", "values": [{"measurement": "Kd", "setting": "His-sclerostin loop2", "result": 23, "unit": "nM"}, {"measurement": "Kd", "setting": "[1]", "result": 3.8, "unit": "nM"}]}
{"substance": "full-length His-sclerostin (from UniProt Q99P68 24-211) (natural protein)", "values": [{"measurement": "Kd", "setting": "[2]", "result": 2.1, "unit": "nM"}]}
